Data published in paper doi:10.1101/595835, “An oligomeric state-dependent switch in FICD regulates AMPylation and deAMPylation of the chaperone BiP” (bioRxiv, 2019).
Blank lines part the entries; values can stand above or below the binder they belong to.

Tests used:
[1] = molecular target: the molecule itself; assay: AUC; fluorescence-detected sedimentation velocity, Oregon Green-labelled FICD 1.6 µM to 31 pM, 20 °C, 50 mM HEPES-KOH pH 7.4, 150 mM KCl, 10 mM MgCl2, 1 mM CaCl2, 0.3 mM TCEP, 0.1% Tween-20, 0.15 mg/ml BSA; monomer-dimer fit (dimer to monomers)
[2] = molecular target: T1, biotinylated AviTag-haBiP^V461F(19-654), AMPylated (Chinese hamster, UniProt G3I8R9 19-654, V461F, AMP on Thr518 (AMPylation); biotin on the AviTag); assay: BLI; biotinylated AMPylated or unmodified BiP immobilised on streptavidin biosensors; FICD His363Ala variants in solution at 250 nM; HKM plus 0.05% Triton X-100, 30 °C (Figure S2G); settings: both partners purified
T1 construct: Chinese hamster BiP (haBiP), aa 19-654; also called BiP-AMP; AMPylated BiP; not shown: GST, N-terminal, cleaved; AviTag, N-terminal, kept
T1 sequence (G3I8R9 19-654 V461F): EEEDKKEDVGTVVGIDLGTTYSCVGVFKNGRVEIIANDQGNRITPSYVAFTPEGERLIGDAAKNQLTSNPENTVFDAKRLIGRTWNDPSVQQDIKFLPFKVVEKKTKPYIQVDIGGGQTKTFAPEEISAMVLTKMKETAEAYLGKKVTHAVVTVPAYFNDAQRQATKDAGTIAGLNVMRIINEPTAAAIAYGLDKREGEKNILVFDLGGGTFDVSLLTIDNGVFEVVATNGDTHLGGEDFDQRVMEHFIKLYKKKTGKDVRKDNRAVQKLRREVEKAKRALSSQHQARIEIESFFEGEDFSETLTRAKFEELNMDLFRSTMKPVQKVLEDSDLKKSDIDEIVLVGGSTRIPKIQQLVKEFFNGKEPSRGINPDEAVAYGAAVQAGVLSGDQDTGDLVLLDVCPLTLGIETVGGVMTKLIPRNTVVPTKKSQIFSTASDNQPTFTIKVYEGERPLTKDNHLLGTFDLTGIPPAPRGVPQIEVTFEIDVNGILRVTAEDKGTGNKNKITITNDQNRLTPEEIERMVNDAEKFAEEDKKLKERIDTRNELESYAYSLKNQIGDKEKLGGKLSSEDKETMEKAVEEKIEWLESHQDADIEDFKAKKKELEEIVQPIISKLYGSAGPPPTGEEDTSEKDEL

[3] = molecular target: T2, biotinylated AviTag-haBiP(28-635)^T229A-V461F (Chinese hamster, UniProt G3I8R9 28-635, T229A | V461F, biotin on the AviTag); assay: BLI; biotinylated BiP^T229A-V461F(28-635) immobilised on streptavidin biosensors and pre-saturated with ATP (2 mM); FICD His363Ala variants at 250 nM, without or with nucleotide (ATP 8 mM, ADP 2 mM); HKM plus 0.05% Triton X-100, 30 °C; settings: both partners purified
T2 construct: Chinese hamster BiP (haBiP), aa 28-635; the assay tells the nucleotide state; also called BiP^T229A-V461F:Apo; BiP:ATP; not shown: GST, N-terminal, cleaved; AviTag, N-terminal, kept
T2 sequence (G3I8R9 28-635 T229A/V461F): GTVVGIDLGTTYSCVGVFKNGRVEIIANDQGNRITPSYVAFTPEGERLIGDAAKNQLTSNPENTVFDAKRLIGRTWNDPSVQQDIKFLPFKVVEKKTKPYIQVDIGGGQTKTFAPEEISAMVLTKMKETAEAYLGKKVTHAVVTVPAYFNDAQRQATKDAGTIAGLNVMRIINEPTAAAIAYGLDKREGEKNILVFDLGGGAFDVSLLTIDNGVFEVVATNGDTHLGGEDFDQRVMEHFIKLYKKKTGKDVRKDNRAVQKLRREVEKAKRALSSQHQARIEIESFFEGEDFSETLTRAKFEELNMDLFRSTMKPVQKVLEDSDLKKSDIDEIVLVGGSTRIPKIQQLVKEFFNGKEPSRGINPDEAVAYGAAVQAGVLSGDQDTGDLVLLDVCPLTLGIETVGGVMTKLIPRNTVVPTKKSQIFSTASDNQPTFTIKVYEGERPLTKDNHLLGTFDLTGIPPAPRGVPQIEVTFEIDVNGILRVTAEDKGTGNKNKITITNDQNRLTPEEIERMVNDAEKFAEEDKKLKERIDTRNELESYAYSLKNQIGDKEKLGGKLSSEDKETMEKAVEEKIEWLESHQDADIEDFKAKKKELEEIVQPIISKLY

[4] = molecular target: T3, biotinylated AviTag-FICD(104-458)^H363A (human, UniProt Q9BVA6 104-458, H363A, biotin on the AviTag); assay: BLI; dimer dissociation: biotinylated AviTag-FICD(104-458)^H363A (3 nM) pre-incubated with FICD^H363A (300 nM), loaded on streptavidin biosensors; dissociation by infinite dilution into HKTx buffer ± nucleotide at 5 mM, 30 °C; mono-exponential fit; settings: both partners purified
T3 construct: human FICD (HYPE), aa 104-458; Expression, purification and biotinylation of this construct are not described; also called N-terminally biotinylated FICD^H363A; UK 2422; not shown: AviTag, N-terminal, kept
T3 sequence (looked up): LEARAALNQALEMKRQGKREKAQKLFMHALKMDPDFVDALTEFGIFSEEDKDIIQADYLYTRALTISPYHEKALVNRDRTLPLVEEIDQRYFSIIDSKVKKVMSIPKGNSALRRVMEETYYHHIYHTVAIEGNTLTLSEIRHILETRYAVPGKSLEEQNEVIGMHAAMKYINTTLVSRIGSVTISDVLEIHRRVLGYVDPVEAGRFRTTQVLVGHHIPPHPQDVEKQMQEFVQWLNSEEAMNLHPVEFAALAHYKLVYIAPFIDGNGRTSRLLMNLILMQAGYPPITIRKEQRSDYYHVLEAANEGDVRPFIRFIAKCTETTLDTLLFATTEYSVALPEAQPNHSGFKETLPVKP

[5] = molecular target: the molecule itself; assay: SEC; analytical SEC, SEC-3 HPLC column, HKMC buffer (50 mM HEPES-KOH pH 7.4, 150 mM KCl, 10 mM MgCl2, 1 mM CaCl2), 25 °C; FICD at 20 µM, or 0.2-50 µM after 16 h at 25 °C (Figure S1D-E); approximate Kd of dimer to monomers from elution peak times
[6] = molecular target: the molecule itself; assay: crystal structure; sitting drop vapour diffusion, FICD at 9 mg/ml in 10 mM Tris-HCl pH 8.0, 150 mM NaCl, 1 mM TCEP, ± 10 mM MgATP

B1: Oregon Green-labelled FICD^NC (domain or fragment, human)
chain: CLEARAALNQALEMKRQGKREKAQKLFMHALKMDPDFVDALTEFGIFSEEDKDIIQADYLYTRALTISPYHEKALVNRDRTLPLVEEIDQRYFSIIDSKVKKVMSIPKGNSALRRVMEETYYHHIYHTVAIEGNTLTLSEIRHILETRYAVPGKSLEEQNEVIGMHAAMKYINTTLVSRIGSVTISDVLEIHRRVLGYVDPVEAGRFRTTQVLVGHHIPPHPQDVEKQMQEFVQWLNSEEAMNLHPVEFAALAHYKLVYIHPFIDGNGRTSRLLMNLILMQAGYPPITIRKEQRSDYYHVLEAANEGDVRPFIRFIAKCTETTLDTLLFATTEYSVALPEAQP
modifications: Oregon Green 488 on the added N-terminal cysteine (labelling efficiency 74%)
notes: N-terminal cysteine added for site-specific labelling, told in words only; human FICD (HYPE), aa 104-445 (purified 'as described above'); also called UK 2339; wild-type (red); source: E. coli, purified (Ni-NTA, anion exchange, SEC), labelled with Oregon Green 488-iodoacetamide; not shown: His6, N-terminal, cleaved; Smt3, N-terminal, cleaved
Kd [1]: 1.2 nM

binding result [2]: binds
binding result [3]: binds
fold increase in the dimer off rate with ATP (5 mM) against no nucleotide [4]: 3 fold
B2: FICD^H363A (aa 104-445) (domain or fragment, human, UniProt Q9BVA6 104-445, looked up)
chain: LEARAALNQALEMKRQGKREKAQKLFMHALKMDPDFVDALTEFGIFSEEDKDIIQADYLYTRALTISPYHEKALVNRDRTLPLVEEIDQRYFSIIDSKVKKVMSIPKGNSALRRVMEETYYHHIYHTVAIEGNTLTLSEIRHILETRYAVPGKSLEEQNEVIGMHAAMKYINTTLVSRIGSVTISDVLEIHRRVLGYVDPVEAGRFRTTQVLVGHHIPPHPQDVEKQMQEFVQWLNSEEAMNLHPVEFAALAHYKLVYIAPFIDGNGRTSRLLMNLILMQAGYPPITIRKEQRSDYYHVLEAANEGDVRPFIRFIAKCTETTLDTLLFATTEYSVALPEAQP
notes: human FICD (HYPE), aa 104-445; also called dFICD^H363A; source: E. coli T7 Express lysY/I^q, purified (Ni-NTA, on-column Ulp1 cleavage, anion exchange, SEC); not shown: His6, N-terminal, cleaved; Smt3, N-terminal, cleaved

B3: wild-type FICD (aa 104-445) (domain or fragment, human, UniProt Q9BVA6 104-445, looked up)
chain: LEARAALNQALEMKRQGKREKAQKLFMHALKMDPDFVDALTEFGIFSEEDKDIIQADYLYTRALTISPYHEKALVNRDRTLPLVEEIDQRYFSIIDSKVKKVMSIPKGNSALRRVMEETYYHHIYHTVAIEGNTLTLSEIRHILETRYAVPGKSLEEQNEVIGMHAAMKYINTTLVSRIGSVTISDVLEIHRRVLGYVDPVEAGRFRTTQVLVGHHIPPHPQDVEKQMQEFVQWLNSEEAMNLHPVEFAALAHYKLVYIHPFIDGNGRTSRLLMNLILMQAGYPPITIRKEQRSDYYHVLEAANEGDVRPFIRFIAKCTETTLDTLLFATTEYSVALPEAQP
notes: human FICD (HYPE), aa 104-445; Dimer by SEC, AUC and crystal structure; also called HYPE; dFICD; source: E. coli T7 Express lysY/I^q, purified (Ni-NTA, on-column Ulp1 cleavage, anion exchange, SEC); not shown: His6, N-terminal, cleaved; Smt3, N-terminal, cleaved
binding result [5]: binds

B4: FICD^K256A (aa 104-445) (domain or fragment, human, UniProt Q9BVA6 104-445, looked up)
chain: LEARAALNQALEMKRQGKREKAQKLFMHALKMDPDFVDALTEFGIFSEEDKDIIQADYLYTRALTISPYHEKALVNRDRTLPLVEEIDQRYFSIIDSKVKKVMSIPKGNSALRRVMEETYYHHIYHTVAIEGNTLTLSEIRHILETRYAVPGASLEEQNEVIGMHAAMKYINTTLVSRIGSVTISDVLEIHRRVLGYVDPVEAGRFRTTQVLVGHHIPPHPQDVEKQMQEFVQWLNSEEAMNLHPVEFAALAHYKLVYIHPFIDGNGRTSRLLMNLILMQAGYPPITIRKEQRSDYYHVLEAANEGDVRPFIRFIAKCTETTLDTLLFATTEYSVALPEAQP
notes: human FICD (HYPE), aa 104-445; also called dimeric dimer relay mutant FICD^K256A; source: E. coli T7 Express lysY/I^q, purified (Ni-NTA, on-column Ulp1 cleavage, anion exchange, SEC); not shown: His6, N-terminal, cleaved; Smt3, N-terminal, cleaved
binding result [6]: binds

B5: FICD^K256S (aa 104-445) (domain or fragment, human, UniProt Q9BVA6 104-445, looked up)
chain: LEARAALNQALEMKRQGKREKAQKLFMHALKMDPDFVDALTEFGIFSEEDKDIIQADYLYTRALTISPYHEKALVNRDRTLPLVEEIDQRYFSIIDSKVKKVMSIPKGNSALRRVMEETYYHHIYHTVAIEGNTLTLSEIRHILETRYAVPGSSLEEQNEVIGMHAAMKYINTTLVSRIGSVTISDVLEIHRRVLGYVDPVEAGRFRTTQVLVGHHIPPHPQDVEKQMQEFVQWLNSEEAMNLHPVEFAALAHYKLVYIHPFIDGNGRTSRLLMNLILMQAGYPPITIRKEQRSDYYHVLEAANEGDVRPFIRFIAKCTETTLDTLLFATTEYSVALPEAQP
notes: human FICD (HYPE), aa 104-445; also called Lys256Ser; dimer relay mutant; source: E. coli T7 Express lysY/I^q, purified (Ni-NTA, on-column Ulp1 cleavage, anion exchange, SEC); not shown: His6, N-terminal, cleaved; Smt3, N-terminal, cleaved
Kd [5]: < 400 nM
